Experimental findings from patent US20190241662A1 (ADAGENE, published 2019) are described below.

Bounds are passed on as bounds.

The target of experiment [1] is T1, recombinant human CTLA4-Fc (human, UniProt P16410 36-162).
T1 construct: also called human CTLA4 fused with human FC fragment; CTLA4-Fc (Sino Biological, 11159-H03H)
T1 sequence (looked up): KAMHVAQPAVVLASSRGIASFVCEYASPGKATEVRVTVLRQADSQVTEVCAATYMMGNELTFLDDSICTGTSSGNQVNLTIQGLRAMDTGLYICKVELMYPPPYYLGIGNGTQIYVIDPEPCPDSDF
Put plainly: ELISA, coated human CTLA4-Fc. As for the experimental part: (§1) The ability of certain IgG antibodies to bind to soluble human (FIG. 1A, Table 5A) or canine (FIG. 1B, Table 5B) CTLA4 was next tested. 1 μg/mL human CTLA4 fused with human FC fragment, or canine CTLA4 fused with His tag, were prepared and used to coat an ELISA plate at 2-8° C. overnight. After blocking, 100 μL serial diluted IgG antibodies were added and incubated at 37° C. for 1 hour. Plates were washed for four times and then incubated with HRP-anti human IgG (Fab specific) (1:6000 dilution) at 37° C. for 1 hour. Plates were washed again four times and incubated with TMB substrate for 15 minutes at room temperature. […] The data was analyzed by Graphpad Prism 6 with nonlinear fitting.

The target of experiment [2] is T2, recombinant human CTLA4 fused with human Fc and His tag (human, UniProt P16410 36-162, limits assumed).
T2 construct: Coated in the CD80 ELISA, biotinylated and in solution in the CD86 ELISA; also called biotinylated human CTLA4 fused with human FC and His tag
T2 sequence (looked up): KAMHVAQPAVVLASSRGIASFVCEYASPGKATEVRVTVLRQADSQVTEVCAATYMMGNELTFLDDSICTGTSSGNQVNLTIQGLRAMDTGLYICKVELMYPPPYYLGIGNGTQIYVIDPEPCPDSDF
Put plainly: competition ELISA: plate-bound human CTLA4-Fc-His, biotinylated CD80 as blocked ligand. How it is done: Antibodies were then tested for their ability to block binding of CTLA4 to its cognate ligands CD80 and CD86 by ELISA. […] Plates were blocked with PBS supplemented with 2% (w/v) skim milk at 37° C. for 1 hour. […] Plates were washed four times, and 100 μL HRP-neutravidin (1:1000) was added to each well and incubated at 37° C. for 1 hour. Plates were washed as previously described, and 50 μL TMB substrate solution was added and incubated at room temperature for 5 minutes before the reaction was stopped by 50 μL sulfate acid (2M).
In general terms: An ELISA detects its analyte on a solid surface through an enzyme-linked reagent.

Experiment [3] concerns the target T3, full-length human CTLA4 expressed on cells (human, UniProt P16410 36-223).
T3 sequence (looked up): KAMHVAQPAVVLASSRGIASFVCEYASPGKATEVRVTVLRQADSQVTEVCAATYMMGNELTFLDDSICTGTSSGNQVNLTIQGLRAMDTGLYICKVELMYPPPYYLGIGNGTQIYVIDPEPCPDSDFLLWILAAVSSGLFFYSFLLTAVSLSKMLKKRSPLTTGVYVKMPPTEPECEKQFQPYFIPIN
Put plainly: cell-based or functional assay.

Experiment [4] addresses T4, biotinylated rat CTLA4 protein fused with human FC (rat, UniProt Q62859 36-161, Biotinylated; sites not stated).
T4 sequence: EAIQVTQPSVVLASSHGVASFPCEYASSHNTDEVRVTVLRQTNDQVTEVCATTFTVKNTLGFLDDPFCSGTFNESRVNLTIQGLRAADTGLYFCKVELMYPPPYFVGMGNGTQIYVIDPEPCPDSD
Put plainly: BLI (ForteBio), biotinylated rat CTLA4-Fc on SA sensor, IgG 15 ug/mL. The text has this:
The association and dissociation curves were fitted to a 1:1 Langmuir binding model using ForteBio Data Analysis 7.1 (Pall, USA) according to the manufacturer's guidelines.
On the technique in general: Biolayer interferometry detects binding as a change in optical thickness at a sensor tip.

In experiment [5] the target is T5, canine CTLA4 fused with His tag (canine, UniProt Q9XSI1 36-162, limits assumed).
T5 construct: also called dog CTLA4
T5 sequence (looked up): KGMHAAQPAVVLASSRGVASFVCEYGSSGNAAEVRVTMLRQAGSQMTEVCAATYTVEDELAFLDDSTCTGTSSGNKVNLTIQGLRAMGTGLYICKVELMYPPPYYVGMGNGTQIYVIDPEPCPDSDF
Kind of experiment: ELISA, coated canine CTLA4-His. As for the experimental part: as §1

In experiment [6] the target is T6, monkey CTLA4 (SPR analyte, construct not stated) (monkey, UniProt G7PL88 36-161).
T6 sequence: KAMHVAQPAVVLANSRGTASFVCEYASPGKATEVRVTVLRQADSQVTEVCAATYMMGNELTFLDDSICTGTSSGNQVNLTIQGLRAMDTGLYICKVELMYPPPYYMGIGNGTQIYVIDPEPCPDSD
Put plainly: SPR (Biacore T200), IgG captured by anti-human Fc. The text has this:
(§2) Binding affinity and kinetics of antibodies against human, monkey and mouse CTLA4 were examined (Table 4) by surface plasmon resonance (SPR) analysis using a Biacore™ T200 instrument (Biacore AB, Uppsala, Sweden) according to the manufacturer's guidelines. Anti-Human IgG (Fc) antibody from Human Antibody Capture Kit (GE BR-1008-39) was immobilized on CM5 chips by coupling of its amine groups onto carboxylated surfaces of sensor chips according to the instructions of an Amine Coupling kit (GE Biacore #BR-1000-50). […] The association and dissociation curves were fitted to a 1:1 Langmuir binding model using Biacore T200 Evaluation Software (Biacore AB) according to the manufacturer's guidelines.
For orientation: Surface plasmon resonance follows binding to a sensor surface in real time, without labels.

Experiment [7] deals with T7, recombinant human CTLA4 protein (construct not stated) (human, UniProt P16410 36-162, limits assumed).
T7 construct: also called biotinylated human CTLA4; human recombinant CTLA4 proteins
T7 sequence (looked up): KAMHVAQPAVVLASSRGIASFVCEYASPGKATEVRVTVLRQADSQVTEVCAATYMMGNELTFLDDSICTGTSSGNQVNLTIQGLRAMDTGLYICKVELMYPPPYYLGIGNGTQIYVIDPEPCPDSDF
Put plainly: SPR (Biacore T200), IgG captured by anti-human Fc.
Excerpt: as §2

Experiment [8] has as its target mouse CTLA4 (SPR analyte, construct not stated) (mouse, UniProt P09793 36-162, limits assumed). Kind of experiment: SPR (Biacore T200), IgG captured by anti-human Fc.
Excerpt: as §2

Experiment [9] addresses T3, full-length human CTLA4 expressed on …. Put plainly: flow cytometry blocking: HEK293F cells with human CTLA4, 100 nM antibody, then 100 nM CD80-Fc-Bio (blocked ligand); PBSA panel: Mean 157692, 26.3%.

B1: TY21687 (antibody, V domains shown)
VH: EVQLVESGGGLVQPGGSLRLSCAASGFTFSGYAIHWVRQAPGKGLEWIGIISPSGGGTKYAQKFQGRVTISRDNSKNTLYLQLNSLRAEDTAVYYCARHPFAYWGQGTLVTVSS
VL: DIQLTQSPSSLSASVGDRVTITCRASQSVDFYGISFLDWYQQKPGKAPKLLIYDASNRATGIPSRFSGSGSGTDFTLTISSLQPEDFATYYCQQYVSSPPEYTFGQGTKVEIK
notes: human IgG1 (hIgG1) from Fab hit B15700
As for B1, the concentration for a half-maximal effect (EC50) (as a rule, the midpoint of the concentration-response curve) is 0.32 nM in experiment [1] and 0.745 nM in [5]. The Kd (usually a measure of binding affinity in units of concentration) in experiment [1] worked out at 0.32 nM; in experiment [4], 0.78 nM; in [5], 0.75 nM; in [6], 1.52 nM; in experiment [7] it was 1.82 nM; in experiment [8], 2.76 nM. In addition, the LogEC50 in experiment [1] was -9.49; in experiment [5], -9.13. The “IC50 (read off the curve)” value in [2] is about 20 nM. Besides, the “EC50 for ADCC reporter signaling (Jurkat/NFAT-Luc/CD16 with HEK293F/hCTLA4 cells)” value in experiment [3] worked out at 9.5 µg/mL.

B2: TY21585 (antibody, V domains shown)
VH: EVQLVESGGGLVQPGGSLRLSCAASGFTFSDYAIHWVRQAPGKGLEWIGIISPSSGSTNYAQKFQGRVTISRDNSKNTLYLQLNSLRAEDTAVYYCARDIHSGSSGYYYGFDVWGQGTLVTVSS
VL: DIQLTQSPSSLSASVGDRVTITCRASESVDFFGISFLAWYQQKPGKAPKLLIYDASNRATGIPSRFSGSGSGTDFTLTISSLQPEDFATYYCQHYTSSPPVYTFGQGTKVEIK
notes: human IgG1 (hIgG1) from Fab hit B15709
As for B2, the results for the EC50 in [1] and in experiment [5] were 0.555 nM and 6.04 nM, respectively. The Kd in experiment [1] came to 0.56 nM; in experiment [5], 6.05 nM; in experiment [6], 8.26 nM; in experiment [7], 8.15 nM; in experiment [8], 1.71 nM. Also, the LogEC50 in experiment [1] was -9.26; in experiment [5], -8.22. Moreover, the “IC50 (read off the curve)” value in experiment [2] was about 10 nM. The “% of cells in upper right quadrant (CD80-positive) in the presence of the antibody” value in [9] came to 22.5%. Further, the “Mean of the CD80 binding signal in the presence of the antibody” value in experiment [9] stood at 83700.

B3: TY21591 (antibody, V domains shown)
VH: EVQLVESGGGLVQPGGSLRLSCAASGFSLSTGGVAVSWIRQAPGKGLEWIGEIYHSGSTYYSPSLKSRVTISRDNSKNTLYLQLNSLRAEDTAVYYCARRIATATYFDYWGQGTLVTVSS
VL: DIQLTQSPSSLSASVGDRVTITCRASQTVFSRYLAWYQQKPGKAPKLLIYDASNRATGIPSRFSGSGSGTDFTLTISSLQPEDFATYYCQQSYYWPPWTFGQGTKVEIK
notes: human IgG1 (hIgG1) from Fab hit B15756
B3: in [1], the EC50 was found to be 0.831 nM, the Kd is 0.83 nM and the LogEC50 was -9.08. Moreover, the “IC50 (read off the curve)” value in [2] was about 10 nM. Besides, in [9], the “% of cells in upper right quadrant (CD80-positive) in the presence of the antibody” value is 24.9% and the “Mean of the CD80 binding signal in the presence of the antibody” value worked out at 68500. In [5], this molecule yielded an EC50 of 0.707 nM, a dissociation constant Kd of 0.71 nM and a LogEC50 of -9.15. Besides, the affinity in [6], expressed as Kd, was 3.27 nM. For the same molecule, in experiment [7], the dissociation constant (Kd) came out at 9.68 nM.

B4: TY21691 (antibody, V domains shown)
VH: EVQLVESGGGLVQPGGSLRLSCAASGFTFSDYAIHWVRQAPGKGLEWIGIISPSGGSTKYAQKFQGRVTISRDNSKNTLYLQLNSLRAEDTAVYYCARLGYGYFDVWGQGTLVTVSS
VL: DIQLTQSPSSLSASVGDRVTITCRASQSVDFYGISFLHWYQQKPGKAPKLLIYDASSLESGVPSRFSGSGSGTDFTLTISSLQPEDFATYYCVQALQLPLTFGQGTKVEIK
notes: human IgG1 (hIgG1) from Fab hit B15736
With B4, the “IC50 (read off the curve)” value in [2] is about 20 nM. In experiment [3], the “EC50 for ADCC reporter signaling (Jurkat/NFAT-Luc/CD16 with HEK293F/hCTLA4 cells)” value was over 10 µg/mL. In addition, the Kd in experiment [4] amounted to 0.58 nM; in experiment [6] it was 2.44 nM; in experiment [7], 2.08 nM; in experiment [8], 1.46 nM.
